Measurements from patent US20110182903A1, “NOVEL SOLUBLE CD83 POLYPEPTIDES, FORMULATIONS AND METHODS OF USE” (priority 2008, published 2011).
Read-outs that look alike come from different tables or passages of the source.

Assays:
[1] = molecular target: the molecule itself; experiment: non-reducing SDS-PAGE; self-association through disulfide bonds
[2] = molecular target: the molecule itself; experiment: size-exclusion chromatography and non-reduced SDS-PAGE with NEM; self-association
[3] = Storage stability of purified protein, reduced and non-reduced SDS-PAGE; assay type: physicochemical
Method: The purified wild type hCD83ext, when prepared as described in Example 1 and formulated either in the presence or absence of 50% glycerol, degraded when stored at 4° C., perhaps due to an intrinsic instability of this biomolecule. […] Generally, the dimer composition increased monotonically with the sample age, indicating the progressive conversion of monomer to dimer under this storage condition. Note that there were at least two different monomer forms (lane 6, FIG. 6) and three different dimer forms (lanes 3 and 7, FIG. 6) derived from various sample preps.

[4] = system: heterotopic cardiac allograft; experiment: C57BL/6-to-BALB/c mouse heart transplant model (murine heterotopic cardiac allograft); assay type: in vivo; settings: for extension of allograft survival compared to untreated controls / mean survival time of graft: monotherapy; for mean survival time of graft: 100 ug per mouse per day for 8 days, untreated mean 8 days
Method: Animal model: C57BL/6-to-BALB/c Mouse Heart Transplant Model
Male adult C57BL/6 (H-2b) were used as donors and BALB/c (H-2d) mice were used as recipients (Jackson Laboratories, Bar Harbor, Mass.). Intra-abdominal heterotopic cardiac transplantation was performed as previously described (Corry et al. (1973) Transplantation 16(4):343-350 and Wang et al. (2007) J Immunol 179(7):4451-4463). In this study, transplant surgery involved transfer of fully MHC-mismatched hearts from C57BL/6 donors to BALB/c recipients, such that the autologous heart as well as the allogenic heart was present in the recipient.
Cardiac transplant recipients were treated as follows: Group I (five recipients) received no treatment. Group 2 (3 recipients) received hCD83ext-m3 monotherapy by i.v. at 100 μg/mouse/day, from −1 to +7 POD. […] Cardiac transplant survival was measured in the number of postoperative days (POD) that the allogenic heart continued to beat.
Cardiac transplant recipients were treated as follows: Group 4 (4 recipients) received hCD83ext-wt (SEQ ID NO:5) monotherapy by i.v. at 100 μg/mouse/day, from the day prior to transplantation until graft rejection.

[5] = system: TNFα production by LPS/IFN-γ stimulated peripheral blood mononuclear cells (PBMCs)
Method: The ability of the wild type and mutant hCD38ext to inhibit TNFα production by LPS/IFN-γ stimulated peripheral blood mononuclear cells (PBMCs) was evaluated in an in vitro assay using PBMCs from cynomologus monkeys. Specifically, cynomologus PBMCs were isolated and pretreated 12 hours with different concentrations (0.5, 5, 25 and 100 μg/ml) of hCD83ext wild type (formulated at pH 4.5 or 5.5), hCD83ext-m3 or hCD83ext-m5 (501-1). hCD83ext-m3 and hCD83ext-m5 were formulated at pH 5.5 or 7.6, respectively. The cells were then activated for 6 hours with LPS (1 μg/ml) plus IFN-γ (100 U/ml) in the presence of Brefeldin A (4 μg/ml) and then intracellularly stained for TNFα using a commercially available Fix/Perm kit. Flow cytometry acquisition and analysis of the amount of TNFα production was evaluated using either myeloid dendritic cells or monocytes. The results are expressed as % of mDC or monocytes producing TNFα and in Mean Fluorescence Units (MFU), which represents the levels of TNFα on a per cell basis.
hCD83ext wild type protein originally formulated at pH 7.6 (data shown FIGS. 26 and 27) was buffer exchanged into a buffer with a pH of 4.5 or 5.5 and re-tested as described above for the ability to inhibit TNFα production by LPS/IFN-γ stimulated cynomologus PBMCs in vitro.

[6] = Dimerization by size-exclusion chromatography and non-reduced SDS-PAGE with NEM pretreatment; assay type: physicochemical; settings: SEC and non-reduced SDS-PAGE with NEM; FIGS. 20, 21
Excerpt: Using exactly the same fermentation and downstream processing protocols as those for wild-type hCD83ext and CD83m-5, CD83m-3 was produced and purified. […] Purified CD83m-3 was subjected to structural characterization using SDS-PAGE (FIG. 15), CD (FIGS. 16 and 17), and spectrofluometry (FIG. 18) with results similar to wild-type hCD83ext and CD83m-5. Note that a clear and reproducible doublet was observed on non-reduced SDS-PAGE (FIG. 15). Also, note that none of these two bands corresponding to the CD83m-3 doublet appeared to have an identical mobility to the monomer species of CD83m-5, but the upper CD83m-3 band appeared to have an identical mobility to the monomer species of the wild-type hCD83ext (FIG. 19). To avoid potential disulfide bond scrambling during the sample preparation for non-reduced SDS-PAGE, the protocol was modified by pretreatment of the sample with N-Ethylmaleimide (NEM). NEM alkylates free thiol groups on cysteine residues that have not formed disulfide bonds, and thereby prevents subsequent disulfide bonding by that cysteine residue. It appears that the modified protocol using NEM provides a more reliable and consistent method for quantification of CD83 dimers by preventing any potential disulfide bond scrambling and the CD83 monomer is observed as a single band, rather than as a doublet (FIG. 20). […]

[7] = system: TNFα production by LPS/IFN-γ stimulated human PBMCs; experiment: Inhibition of TNFα production by LPS/IFN-γ stimulated human PBMCs; assay type: cell-based; settings: FIG. 30; four m3 preparations (pH 4.5, 5.5, 7.6) vs wild type ARG-021 in PBS pH 7.6
Excerpt: The improved stability/activity of hCD83ext-m3 as compared to hCD83ext wild type was confirmed in a similar assay using human PBMCs.

[8] = system: kidney allografts from C57BL/6 mouse donors; experiment: Mouse orthotopic kidney transplant model; assay type: in vivo; settings: monotherapy 100 μg/mouse/day i.v., day -1, day 0 and seven POD; untreated MST 31±4.9 days
Method: The mouse orthotopic kidney transplant model (see Zhang et al. (2005) Microsurgery 16(2):103-109) was used to assess the ability of hCD83ext-m3 to induce allograft tolerance. BALB/c mice received kidney allografts from C57BL/6 mouse donors. Recipient mice were either untreated (two mice) or received hCD83ext-m3 (3 mice; 100 μg/mouse/day, i.v.) one day prior to transplantation (day −1), the day of transplantation (day 0) and for seven days post operative days (POD). The two untreated mice survived for 28 and 35 days, giving a mean survival time (MST) of 31±4.9 days. The three mice treated with hCD83ext-m3 each survived for more than 100 POD. Accordingly, monotherapy with hCD83ext-m3 leads to long-term allograft acceptance in the mouse orthotopic kidney transplant model.

[9] = system: rat renal allografts; experiment: Rat renal transplant model of chronic rejection (F344 to Lewis); assay type: in vivo; settings: POD 140; with CsA, compared to CsA alone; FIG. 37
Method: F344 rats served as renal donors to Lewis rats. […] Transplant recipients were sacrificed on POD 140 and transplanted kidneys were assessed for indications of chronic rejection by histology and immunohistochemistry. Renal histology was scored by an independent pathologist assessing tubular atrophy, glomerular atrophy, interstitial fibrosis, intimal thickness, cell infiltrates and cortical scarring on a scale of 0-4, wherein 0=normal, 1=minimal change, 2=mild change, 3=moderate change and 4=marked change.

[10] = FIG. 26, 0.5, 5, 25 and 100 μg/ml, wild type at pH 4.5 or 5.5, m3 at pH 5.5, m5 at pH 7.6

B1: wild type hCD83ext (human CD83 extracellular domain with N-terminal Gly-Ser-Pro-Gly and C-terminal Ile, purified from E. coli) (receptor)
chain: GSPGTPEVKVACSEDVDLPCTAPWDPQVPYTVSWVKLLEGGEERMETPQEDHLRGQHYHQKGQNGSFDAPNERPYSLKIRNTTSCNSGTYRCTLQDPDGQRNLSGKVILRVTGCPAQRKEETFKKYRAE
notes: It carries four extra N-terminal residues and the first transmembrane residue (Ile); Not glycosylated (made in E. coli); Preparations hold monomer and disulfide-linked dimers and multimers; also called hCD83ext-wt; hCD83ext wild type
B1: binds [1].

B2: hCD83ext-m5 (hCD83ext with the fifth cysteine, position 114 of SEQ ID NO:5, mutated to serine) (receptor)
chain: GSPGTPEVKVACSEDVDLPCTAPWDPQVPYTVSWVKLLEGGEERMETPQEDHLRGQHYHQKGQNGSFDAPNERPYSLKIRNTTSCNSGTYRCTLQDPDGQRNLSGKVILRVTGSPAQRKEETFKKYRAE
notes: also called CD83m-5; hCD83m-5
B2: binds [2].

B3: hCD83ext-wt: recombinant human sCD83 (CD83 extracellular domain) purified from E. coli, wild type form, SEQ ID NO:5 (protein)
chain: GSPGTPEVKVACSEDVDLPCTAPWDPQVPYTVSWVKLLEGGEERMETPQEDHLRGQHYHQKGQNGSFDAPNERPYSLKIRNTTSCNSGTYRCTLQDPDGQRNLSGKVILRVTGCPAQRKEETFKKYRAEI
modifications: Synthetic extracellular domain of human CD83 with the addition of Gly-Ser-Pro-Gly at the N-terminus and Ile at the C-terminus
With B3 the degradation on storage ([3]; stored at 4° C., with or without 50% glycerol) was “degraded”, the degradation on storage ([3]; stored at -20° C.) was “completely prevented degradation” and the “dimerization on long-term storage” value ([3]; stored at -20° C., frozen) was “dimerization could still occur”. The “MST ± SD” value ([4]; Table 8, hCD83ext-wt 100 μg/mouse/day i.v., CsA 15 mg/kg/day s.c.) was 15.8 ± 1.0 days, the mean survival ([4]; in combination with cyclosporine, glycerol omitted) was “approximately 14 days” and the long-term graft survival ([4]; in combination with cyclosporine, stored in 50% glycerol, final glycerol concentration 8%) was over 100 days. The “extension of allograft survival compared to untreated controls” value [4] was “approximately 2 fold” and the “mean survival time of graft” value [4] was “approximately 14 days”.

B4: hCD83ext-m5: soluble CD83 mutant, fifth cysteine of SEQ ID NO:5 mutated to serine, SEQ ID NO:6 (WO2004/046182) (protein)
chain: GSPGTPEVKVACSEDVDLPCTAPWDPQVPYTVSWVKLLEGGEERMETPQEDHLRGQHYHQKGQNGSFDAPNERPYSLKIRNTTSCNSGTYRCTLQDPDGQRNLSGKVILRVTGSPAQRKEETFKKYRAEI
modifications: Synthetic extracellular domain of human CD83 with the addition of Gly-Ser-Pro-Gly and the N-terminus and Ile at the C-terminus, with Cys to Ser (C2S) mutation at position 114
With B4 the “mean survival time of graft” value [4] was “approximately 14 days”, the “ability to inhibit TNFα production (relative activity)” value [5, 10] was “more active than the wild type hCD93ext” and the “ability to inhibit TNFα production (relative activity)” value ([5]; FIG. 27, proteins formulated at pH 7.6) was “outperformed two preparations of hCD83ext wild type”. The dimerization [6] was “significant”.

B5: hCD83ext-m3: m3 mutant form of human sCD83; SEQ ID NO:7 with Cys at 12, 20, 92, 114 and Ser at 85 (protein)
chain: GSPGTPEVKVAXSEDVDLPXTAPWDPQVPYTVSWVKLLEGGEERMETPQEDHLRGQHYHQKGQNGSFDAPNERPYSLKIRNTTSXNSGTYRXTLQDPDGQRNLSGKVILRVTGXPAQRKEETFKKYRAEI
modifications: Synthetic extracellular domain of human CD83 with the addition of Gly-Ser-Pro-Gly and the N-terminus and Ile at the C-terminus
For B5, the “synergy with CsA and operational tolerance” value ([4]; 3 doses on days -1 to +1 plus CsA, CsA withdrawn at day 50, data not shown) was “full synergy with CsA, but incomplete operational tolerance”, the “MST ± SD” value ([4]; Table 7, hCD83ext-m3 100 μg/mouse/day i.v. -1 to +7 POD, CsA 15 mg/kg/day s.c. daily) was 13.7 ± 0.6 days and the “allograft tolerance after CsA withdrawal” value ([4]; combination therapy with CsA, CsA withdrawn at day 28, data not shown) was “does not lead to permanent allograft tolerance”. For the same molecule, the “extension of allograft survival compared to untreated controls” value [4] was “approximately 2 fold”, the “mean survival time of graft” value [4] was “approximately 14 days” and the “allograft tolerance after cessation of daily CsA therapy” value ([4]; plus CsA until POD 50, hCD83ext-m3 100 μg i.v. days -1 to +7, data not shown) was “complete allograft tolerance”. The “ability to inhibit TNFα production (relative activity)” value [5, 10] was “more active than the m5 mutant”, the dimerization [6] was “absent or minimal” and the “ability to inhibit TNFα production (relative activity)” value [7] was “outperformed hCD83ext wild type”. The “survival of kidney allograft recipients” value [8] was “more than 100 POD” and the “immunohistochemistry grading in renal allografts (IgG, IgM deposits; CD2, CD4, ED-1 infiltration)” value [9] was “significantly (p<0.05) improves immunohistochemistry grading”.
